Measurements reported in paper PMC6362314, “Both a Unique Motif at the C Terminus and an N-Terminal HEAT Repeat Contribute to G-Quadruplex Binding and Origin Regulation by the Rif1 Protein” (Molecular and Cellular Biology, 2018).

Molecular target: the molecule itself
Experiment: native gel or EMSA; purified Rif1 C-terminal polypeptides on a native protein gel (5% to 20% gradient gel), CBB staining; self-association

B1: Rif1 C-terminal 272-aa polypeptide (aa 1129 to 1400), wild type (domain or fragment, S. pombe, UniProt Q96UP3 1129-1400, looked up)
chain: KIDETKNEATDMEESLTTPSGKVNKEVIVDDTSLRDEAIVPDKAIDVADNSNALLKENISSQSNRKADNNGTPSVNNSFTTANNDECSKENSQIEPEGQTASREGVLSTPRSTRKKRKLGRKSQSSNVNKEVAISEVSATLENVEVIERHGISEQGQNLDESACVLTNESSLSQTEIPEEKTENETTAVNGFENSKKRQFSSLLSGSIDTNNESNKVSSVEFDKSGPQDIIQSMTEATFEIEKNIQDLKSEEVQKLSDLLMRLQRAILSRIA
notes: Rif1, fission yeast (S. pombe), 1,400 amino acids; C-terminal polypeptides were also made in 293T cells (N-terminal His6, C-terminal Flag3); also called Rif1(aa1129-1400); C-terminal polypeptide; source: E. coli, purified (nickel column, Mono Q column if necessary)
- stoichiometry N: ≤ 16 subunits

B2: Rif1 C-terminal 229-aa polypeptide (aa 1172 to 1400) (domain or fragment, S. pombe, UniProt Q96UP3 1172-1400, looked up)
chain: AIDVADNSNALLKENISSQSNRKADNNGTPSVNNSFTTANNDECSKENSQIEPEGQTASREGVLSTPRSTRKKRKLGRKSQSSNVNKEVAISEVSATLENVEVIERHGISEQGQNLDESACVLTNESSLSQTEIPEEKTENETTAVNGFENSKKRQFSSLLSGSIDTNNESNKVSSVEFDKSGPQDIIQSMTEATFEIEKNIQDLKSEEVQKLSDLLMRLQRAILSRIA
notes: Rif1, fission yeast (S. pombe), 1,400 amino acids; residues 1172-1400; source: E. coli, purified (nickel column, Mono Q column if necessary)
- stoichiometry N: ≤ 16 subunits

B3: Rif1 C-terminal 148-aa polypeptide (aa 1253 to 1400) (domain or fragment, S. pombe, UniProt Q96UP3 1253-1400, looked up)
chain: SSNVNKEVAISEVSATLENVEVIERHGISEQGQNLDESACVLTNESSLSQTEIPEEKTENETTAVNGFENSKKRQFSSLLSGSIDTNNESNKVSSVEFDKSGPQDIIQSMTEATFEIEKNIQDLKSEEVQKLSDLLMRLQRAILSRIA
notes: Rif1, fission yeast (S. pombe), 1,400 amino acids; residues 1253-1400; source: E. coli, purified (nickel column, Mono Q column if necessary)
- stoichiometry N: ≤ 16 subunits

B4: Rif1 C-terminal 91-aa polypeptide (aa 1310 to 1400) (domain or fragment, S. pombe, UniProt Q96UP3 1310-1400, looked up)
chain: TENETTAVNGFENSKKRQFSSLLSGSIDTNNESNKVSSVEFDKSGPQDIIQSMTEATFEIEKNIQDLKSEEVQKLSDLLMRLQRAILSRIA
notes: Rif1, fission yeast (S. pombe), 1,400 amino acids; residues 1310-1400; also called C-terminal 91 amino acids; source: E. coli, purified (nickel column, Mono Q column if necessary)
- stoichiometry N: ≤ 16 subunits
